The target in assay [1] is T1, C3G-AAPA (human, UniProt Q13905-1 4-1077, P283A | P284A | L286 | P287 | P289A | P453A | P454A | L456A | P457A | K459A | …).
T1 construct: human C3G isoform a, residues 4-1077; only P3 kept, P1, P2 and P4 mutated to Ala; source: E. coli BL21 (DE3), purified (IMAC, TEV digestion, reversed IMAC, SEC); not shown: His, N-terminal, cleaved; Halo, N-terminal, cleaved
T1 sequence (looked up): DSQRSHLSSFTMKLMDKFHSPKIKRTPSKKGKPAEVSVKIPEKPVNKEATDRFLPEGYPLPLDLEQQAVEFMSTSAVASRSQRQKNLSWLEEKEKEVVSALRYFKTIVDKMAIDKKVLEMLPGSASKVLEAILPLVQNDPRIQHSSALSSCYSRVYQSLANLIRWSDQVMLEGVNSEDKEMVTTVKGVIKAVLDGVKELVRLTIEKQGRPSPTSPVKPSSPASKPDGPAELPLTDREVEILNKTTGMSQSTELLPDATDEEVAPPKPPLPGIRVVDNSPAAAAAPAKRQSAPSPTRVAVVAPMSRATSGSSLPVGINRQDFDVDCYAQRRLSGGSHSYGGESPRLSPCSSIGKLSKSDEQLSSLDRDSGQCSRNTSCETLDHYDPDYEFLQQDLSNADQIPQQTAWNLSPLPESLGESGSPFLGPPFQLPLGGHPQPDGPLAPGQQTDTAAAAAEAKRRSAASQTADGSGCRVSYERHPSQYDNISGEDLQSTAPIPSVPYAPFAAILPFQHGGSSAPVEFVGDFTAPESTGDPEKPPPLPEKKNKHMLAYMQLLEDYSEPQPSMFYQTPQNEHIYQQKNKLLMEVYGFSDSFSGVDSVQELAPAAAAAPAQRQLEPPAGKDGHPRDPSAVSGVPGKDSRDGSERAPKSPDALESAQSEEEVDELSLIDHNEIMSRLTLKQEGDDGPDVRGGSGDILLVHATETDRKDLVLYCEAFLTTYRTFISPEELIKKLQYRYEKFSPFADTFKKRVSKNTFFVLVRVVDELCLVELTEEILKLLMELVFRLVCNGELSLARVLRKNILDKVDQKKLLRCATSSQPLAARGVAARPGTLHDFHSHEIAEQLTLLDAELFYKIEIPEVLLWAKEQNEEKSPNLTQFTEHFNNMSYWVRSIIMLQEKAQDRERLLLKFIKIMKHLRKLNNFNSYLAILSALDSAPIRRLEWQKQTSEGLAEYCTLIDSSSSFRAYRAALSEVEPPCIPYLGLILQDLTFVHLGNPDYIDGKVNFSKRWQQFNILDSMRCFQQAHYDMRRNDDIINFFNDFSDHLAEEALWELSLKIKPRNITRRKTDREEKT
The assay can be described thus: ITC; single-PRM mutant of C3G in the cell titrated with CrkL or CrkL-SH3N, 25 °C, 300 mM NaCl, pH 7.5; SEDPHAT, 1:1 heteroassociation model; N is the competent fraction of C3G. As to conditions: both partners purified. (ITC needs no label: the signal is the heat of the interaction.)

The target of assay [2] is T2, C3G-AAAP-Y554H (human, UniProt Q13905-1 4-1077, P283A | P284A | L286 | P287 | P289A | P453A | P454A | L456A | P457A | K459A | …).
T2 construct: human C3G isoform a, residues 4-1077; source: E. coli BL21 (DE3), purified (IMAC, TEV digestion, reversed IMAC, SEC); not shown: His, N-terminal, cleaved; Halo, N-terminal, cleaved
T2 sequence (looked up): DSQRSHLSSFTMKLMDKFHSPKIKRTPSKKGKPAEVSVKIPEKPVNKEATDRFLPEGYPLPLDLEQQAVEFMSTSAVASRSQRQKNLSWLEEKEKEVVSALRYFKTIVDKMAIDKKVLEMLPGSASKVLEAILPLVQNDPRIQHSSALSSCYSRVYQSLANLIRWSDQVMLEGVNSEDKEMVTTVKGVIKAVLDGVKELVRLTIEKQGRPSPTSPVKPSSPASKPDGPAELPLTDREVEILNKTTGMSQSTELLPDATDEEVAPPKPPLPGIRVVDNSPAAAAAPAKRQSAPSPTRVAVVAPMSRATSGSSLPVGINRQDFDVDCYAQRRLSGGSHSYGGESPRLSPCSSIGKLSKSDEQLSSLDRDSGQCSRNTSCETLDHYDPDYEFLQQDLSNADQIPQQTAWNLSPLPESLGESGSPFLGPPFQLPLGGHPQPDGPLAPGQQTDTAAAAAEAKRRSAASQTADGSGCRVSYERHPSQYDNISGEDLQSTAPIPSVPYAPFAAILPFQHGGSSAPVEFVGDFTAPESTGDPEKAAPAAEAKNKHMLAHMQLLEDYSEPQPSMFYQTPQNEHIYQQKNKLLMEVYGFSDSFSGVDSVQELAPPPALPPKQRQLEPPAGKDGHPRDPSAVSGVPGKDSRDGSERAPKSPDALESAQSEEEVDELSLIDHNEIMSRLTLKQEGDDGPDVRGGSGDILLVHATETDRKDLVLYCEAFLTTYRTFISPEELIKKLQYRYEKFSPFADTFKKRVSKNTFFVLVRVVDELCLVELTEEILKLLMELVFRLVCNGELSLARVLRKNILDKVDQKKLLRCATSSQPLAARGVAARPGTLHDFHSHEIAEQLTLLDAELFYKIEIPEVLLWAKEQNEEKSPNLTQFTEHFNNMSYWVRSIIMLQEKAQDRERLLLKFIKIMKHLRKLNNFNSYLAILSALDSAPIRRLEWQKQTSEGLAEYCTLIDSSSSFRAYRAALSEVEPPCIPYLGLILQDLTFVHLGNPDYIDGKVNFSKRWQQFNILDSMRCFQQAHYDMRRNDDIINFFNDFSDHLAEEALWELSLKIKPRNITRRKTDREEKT
Described as above. As to conditions: both partners purified.

B1: CrkL (full-length) (natural protein, human, UniProt P46109 1-303, looked up)
chain: MSSARFDSSDRSAWYMGPVSRQEAQTRLQGQRHGMFLVRDSSTCPGDYVLSVSENSRVSHYIINSLPNRRFKIGDQEFDHLPALLEFYKIHYLDTTTLIEPAPRYPSPPMGSVSAPNLPTAEDNLEYVRTLYDFPGNDAEDLPFKKGEILVIIEKPEEQWWSARNKDGRVGMIPVPYVEKLVRSSPHGKHGNRNSNSYGIPEPAHAYAQPQTTTPLPAVSGSPGAAITPLPSTQNGPVFAKAIQKRVPCAYDKTALALEVGDIVKVTRMNINGQWEGEVNGRKGLFPFTHVKIFDPQNPDENE
notes: human CrkL, residues 1-303, in pETEV15b; also called Crk-like protein; source: E. coli BL21 (DE3), purified (IMAC, TEV digestion, SEC); not shown: His, N-terminal, cleaved
As a reminder, the Kd is a measure of binding affinity in units of concentration. A lower Kd goes with a tighter complex. Regarding B1, the Kd in assay [1] stood at 2100 nM. This lies in the single-digit micromolar range.

B2: CrkL-SH3N (domain or fragment, human, UniProt P46109 125-182, looked up)
chain: LEYVRTLYDFPGNDAEDLPFKKGEILVIIEKPEEQWWSARNKDGRVGMIPVPYVEKLV
notes: human CrkL, SH3N domain, residues 125-182, in pETEV15b; source: E. coli BL21 (DE3), purified (IMAC, TEV digestion, SEC); not shown: His, N-terminal, cleaved
The stoichiometry N is a count of units in the complex or per binding partner. As to B2, in assay [2], the Kd stood at 2400 nM and the “stoichiometry N” value came to 0.57.

For the origin of these results see paper PMC9896810, “Crk proteins activate the Rap1 guanine nucleotide exchange factor C3G by segregated adaptor-dependent and -independent mechanisms” (Cell Communication and Signaling : CCS, 2023).
